From patent publication US20240392003A1 (NUMAB THERAPEUTICS, published 2024)
Read-outs that look alike come from different tables or passages of the source. Each block holds one binder with its values, some of them ahead of it.

Tests used:
[1] = molecular target: T1, human ROR1 expressed on cells (human, UniProt Q01973 30-937); assay: flow cytometry, MDA-MB-231 cells, 1 mg/ml hSA
T1 construct: whole, on cells; One molecule for cell-surface ROR1 on all cell lines; the cell line is named under assay; also called hROR1; plasma membrane human ROR1

[2] = molecular target: T2, recombinant human ROR1 protein (Fc-Tag, Acro Biosystems RO1-H5250) (human, UniProt Q01973 30-406); assay: SPR; hROR1-Fc immobilized
T2 construct: Bought; also called hROR1; recombinant human ROR1 ECD; not shown: Fc tag

[3] = molecular target: T3, recombinant human CD3 epsilon extra-cellular domain protein (His-Tag, SinoBiological) (human, UniProt P07766 23-126); assay: SPR; hCD3ε immobilized, two-state fit;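 as to ka2: biacore T200 measurement with target covalently coupled to a CM5 chip, antibody constructs injected as analyte over a concentration series, constants derived in Biacore Evaluation software 3.2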;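 as to kd2: biacore T200 measurement with target covalently coupled to a CM5 chip, antibody constructs injected as analyte over a concentration series, constants derived in Biacore Evaluation software 3.2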
T3 construct: extracellular domain; Bought; also called hCD3ε; human CD3ε; not shown: His tag

[4] = molecular target: T1, human ROR1 expressed on cells; assay: flow cytometry, gated on CLL patient tumor cells (ROR1 about 8k/cell), titration in the presence of human serum albumin, labelled framework-specific secondary reagent
[5] = molecular target: T3, recombinant human CD3 epsilon …; assay: SPR; hCD3ε immobilized, two-state fit (ka1)
[6] = molecular target: T3, recombinant human CD3 epsilon …; assay: SPR; hCD3ε immobilized, two-state fit (kd1)
[7] = molecular target: T2, recombinant human ROR1 protein (Fc-Tag, …); assay: SPR; hROR1-Fc immobilized; remark: listed apart in the source
[8] = molecular target: T2, recombinant human ROR1 protein (Fc-Tag, …); assay: SPR; hROR1-Fc immobilized; remark: listed apart in the source
[9] = molecular target: T1, human ROR1 expressed on cells; assay: flow cytometry, MDA-MB-231 cells; mean of two experiments
[10] = molecular target: T1, human ROR1 expressed on cells; assay: flow cytometry, MDA-MB-231 cells
[11] = molecular target: T1, human ROR1 expressed on cells; assay: flow cytometry, MDA-MB-231 cells; remark: listed apart in the source
[12] = molecular target: T4, recombinant Cynomolgus monkey CD3ε (His-Tag; SinoBiological) (Cynomolgus monkey, UniProt Q95LI5 22-117); assay: SPR; cCD3ε immobilized, two-state fit (Kd1)
T4 construct: Bought; also called cCD3ε; not shown: His tag
T4 sequence (looked up): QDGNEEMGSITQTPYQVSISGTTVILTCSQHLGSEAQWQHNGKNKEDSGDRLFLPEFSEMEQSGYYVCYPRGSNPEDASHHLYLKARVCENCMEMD

[13] = molecular target: T4, recombinant Cynomolgus monkey CD3ε …; assay: SPR; cCD3ε immobilized, two-state fit
[14] = molecular target: T4, recombinant Cynomolgus monkey CD3ε …; assay: SPR; cCD3ε immobilized, two-state fit (Ka1)
[15] = molecular target: T3, recombinant human CD3 epsilon …; assay: SPR; hCD3ε immobilized, two-state fit (Kd1)
[16] = molecular target: T3, recombinant human CD3 epsilon …; assay: SPR; hCD3ε immobilized, two-state fit; remark: listed apart in the source
[17] = molecular target: T3, recombinant human CD3 epsilon …; assay: SPR; hCD3ε immobilized, two-state fit (Ka1)
[18] = molecular target: T1, human ROR1 expressed on cells; assay: flow cytometry, MDA-MB-231 cells; mean of three experiments
[19] = molecular target: T5, cynomolgus monkey serum albumin (Molecular Innovations CYSA) (cynomolgus monkey); assay: SPR; cSA immobilized, pH 5.5
T5 construct: also called cSA; CSA

[20] = molecular target: T6, human serum albumin (Sigma-Aldrich A3782) (human, UniProt P02768 25-609); assay: SPR; hSA immobilized, pH 5.5
T6 construct: also called hSA; HSA

[21] = molecular target: T7, mouse serum albumin (Sigma-Aldrich A3559) (mouse, UniProt P07724 25-608); assay: SPR; mSA immobilized, pH 7.4; biphasic binding corrected with bulk correction in 1:1 fit
T7 construct: also called mSA; MSA

[22] = molecular target: T7, mouse serum albumin (Sigma-Aldrich …); assay: SPR; mSA immobilized, pH 5.5; biphasic binding corrected with bulk correction in 1:1 fit
[23] = molecular target: T6, human serum albumin (Sigma-Aldrich …); assay: SPR; hSA immobilized, pH 7.4
[24] = molecular target: T5, cynomolgus monkey serum albumin …; assay: SPR; cSA immobilized, pH 7.4
[25] = molecular target: T7, mouse serum albumin (Sigma-Aldrich …); assay: SPR; mSA immobilized, pH 5.5
[26] = molecular target: T7, mouse serum albumin (Sigma-Aldrich …); assay: SPR; mSA immobilized, pH 7.4

B1: PRO2668 (bispecific antibody)
chain: AFELTQSPSSLSASVGDRVTITCQASESINSRLAWYQQKPGQPPKLLIYDASDLTSGVPSRFSGSGSGTDFTLTISSLQPEDFATYYCQGYGGSSTTTFGCGTKLTVLGGGGGSEVQLVESGGGRVQPGGSLRLSCAASGFSLSSYDMSWVRQAPGKGLAWIGASYASGPTYYASWAKGRFTISRDNSKNTVYLQMNSLRAEDTATYFCARGGWTGTSHSNIWGQGTQVTVSSGGGGSGGGGSGGGGSGGGGSDIQMTQSPSSLSASVGDRVTITCQSSQSVFSNNYLAWFQQKPGQSPKRLIYSASTLASGVPSRFSGSGSGTDFTLTISSLQPEDFATYYCLGSYACSSADCYVFGTGTKVTVLGGGGGSEVQLVESGGGRVQPGGSLRLSCAASGFSLSSYAMNWVRQAPGKCLEWIGHINAGDIAYYATWAKGRFTISRDNSKNTVYLQMNSLRAEDTATYFCARGAGGFSTGPFKLWGQGTQVTVSSGGGGSGGGGSAQQLTQSPSSLSASVGDRVTITCQASQNVWNNNYLSWFQQKPGKPPKLLIVTASTLASGVSSRFSGSGSGTDFTLTISSLQPEDFATYYCAGGFSGEIRAFGCGTKVTVLGGGGGSGGGGSGGGGSGGGGSQSQLVESGGGRVQPGGSLRLSCAVSGLSLSRNAMSWVRQAPGKCLEWIGIILTSGSTYYASWAKGRFTISKDNSKNTVYLQMNSLRAEDTATYFCVRGIASSSLKSFWGQGTQVTVSS
notes: trispecific anti-ROR1 x hSA x CD3 scMATCH3, single chain, optimized variant of PRO2510; also called 19-04-A10-sc06(RTQ) scDb-o/28-21-D09-sc04 (RTQ) scDb-i/55-39-G02-sc05(RTQ)-scFv; RPO2668
EC50 [1]: 0.74 nM | Rel. maximum binding (MFIscMATCH3/MFIPRO2213) [1]: 2.89 | Kd [2]: 0.28 nM | koff [2]: 0.00056 s⁻¹ | kon [2]: 2e+06 M⁻¹ s⁻¹ | Kd [3]: 1.8 nM | ka2 [3]: 0.0049 s⁻¹ | kd2 [3]: 0.0023 s⁻¹ | EC50 (read off the curve) [4]: ~1 nM | kon [5]: 2.5e+06 M⁻¹ s⁻¹ | koff [6]: 0.0047 s⁻¹

B2: PRO2062 (scFv, V domains shown)
VH: QSQLVESGGGLVQPGGSLRLSCAVSGLSLSRNAMSWVRQAPGKGLEWIGIILTSGSTYYASWAKGRFTISKDNSKNTVYLQMNSLRAEDTAVYFCVRGIASSSLKSFWGQGTLVTVSS
VL: AQQLTQSPSSLSASVGDRVTITCQASQNVWNNNYLSWFQQKPGKPPKLLIVTASTLASGVSSRFSGSGSGTDFTLTISSLQPEDFATYYCAGGFSGEIRAFGTGTKVTVLG
notes: scFv (Full graft); also called 55-39-G02-sc02
Kd [7]: 0.0926 nM | koff [7]: 0.00049 s⁻¹ | kon [7]: 5.29e+06 M⁻¹ s⁻¹ | Kd [8]: 0.103 nM | koff [8]: 0.000455 s⁻¹ | kon [8]: 4.45e+06 M⁻¹ s⁻¹ | EC50 [9]: 0.26 nM

B3: PRO2271 (scFv, V domains shown)
VH: QSQLVESGGGLVQPGGSLRLSCAVSGIDLSRNAMSWVRQAPGKGLEWIGIILTSGSTYYASWAKGRFTISKTSTTLDLQMNSLRAEDTAVYFCVRGIASSSLKSFWGQGTLVTVSS
VL: B2 VL
notes: scFv, T cell score optimized variant of PRO2062; also called 55-39-G02-sc03
EC50 [10]: 0.63 nM | Rel. maximum binding (MFIscFv/MFIPRO2213) [10]: 0.87 | Kd [7]: 0.364 nM | koff [7]: 0.000578 s⁻¹ | kon [7]: 1.59e+06 M⁻¹ s⁻¹ | fold lower apparent binding affinity than PRO2062 [11]: ~2 fold

The next lines start with the values.

koff [12]: 0.0062 s⁻¹ | Kd [13]: 4.8 nM | kon [14]: 820000 M⁻¹ s⁻¹ | koff [15]: 0.0055 s⁻¹ | Kd [16]: 5.3 nM | kon [17]: 650000 M⁻¹ s⁻¹
B4: PRO726 (scFv, V domains shown)
VH: EVQLVESGGGLVQPGGSLRLSCAASGFSLSSYDMSWVRQAPGKGLAWIGASYASGPTYYASWAKGRFTISRDNSKNTVYLQMNSLRAEDTATYFCARGGWTGTSHSNIWGQGTLVTVSS
VL: DIQMTQSPSSLSASVGDRVTITCQSSQSVFSNNYLAWFQQKPGQSPKRLIYSASTLASGVPSRFSGSGSGTDFTLTISSLQPEDFATYYCLGSYACSSADCYVFGTGTKVTVLG
notes: scFv; also called 28-21-D09-sc04; anti-CD3 scFv

Kd [7]: 0.285 nM | koff [7]: 9.56e-05 s⁻¹ | kon [7]: 335000 M⁻¹ s⁻¹ | Kd [8]: 0.416 nM | koff [8]: 9.79e-05 s⁻¹ | kon [8]: 250000 M⁻¹ s⁻¹ | EC50 [18]: 2.93 nM
B5: PRO2060 (scFv, V domains shown)
VH: QSQVVESGGGLVQPGGSLRLSCAVSGFDLSSYAVSWVRQAPGKGLEWIGIIYPRANTYYASWAKGRFTISKDNSKNTVYLQMNSLRAEDTAVYFCARDRYDSGAYLYTTYFNLWGQGTLVTVSS
VL: DVQMTQSPSSLSASVGDRVTITCRASENIYSGLAWYQQKPGKPPKLLIYRASTLASGVSSRFSGSGSGTDFTLTISSLQPEDFATYYCQGGYYSSSSTYIAFGTGTKVTVLG
notes: scFv (Full graft); also called 55-38-D07-sc02

Kd [19]: 2.3 nM | koff [19]: 0.0021 s⁻¹ | kon [19]: 910000 M⁻¹ s⁻¹ | Kd [20]: 3.3 nM | koff [20]: 0.003 s⁻¹ | kon [20]: 900000 M⁻¹ s⁻¹ | Kd [21]: 9 nM | Kd [22]: 2.5 nM | Kd [23]: 2.2 nM | koff [23]: 0.0012 s⁻¹ | kon [23]: 550000 M⁻¹ s⁻¹ | Kd [24]: 1.6 nM | koff [24]: 0.00091 s⁻¹ | kon [24]: 580000 M⁻¹ s⁻¹ | koff [25]: 0.0002 s⁻¹ | kon [25]: 78000 M⁻¹ s⁻¹ | koff [26]: 0.00029 s⁻¹ | kon [26]: 32000 M⁻¹ s⁻¹
B6: PRO2155 (scFv, V domains shown)
VH: EVQLVESGGGLVQPGGSLRLSCAASGFSLSSYAMNWVRQAPGKGLEWIGHINAGDIAYYATWAKGRFTISRDNSKNTVYLQMNSLRAEDTAVYFCARGAGGFSTGPFKLWGQGTLVTVSS
VL: AFELTQSPSSLSASVGDRVTITCQASESINSRLAWYQQKPGQPPKLLIYDASDLTSGVPSRFSGSGSGTDFTLTISSLQPEDFATYYCQGYGGSSTTTFGGGTKLTVLG
notes: scFv; also called 19-04-A10-sc02; anti-hSA scFv
